From PMC3247650 (Pharmaceutical research, 2011)

Key:
Porcine kidney DPP IV = Porcine kidney DPP IV (Sus scrofa, UniProt P22411); experiment: DPP IV degradation of GLP-1 in the presence or absence of PGC or PGC-C18; format: in vitro ADME; conditions: 24 hours, 37°C, reverse phase HPLC, mean +/−SD, n=6
[1] = Stability of PGC-C18-GLP-1 formulation at 37°C; format: physicochemical; conditions: GLP-1 without PGC-C18, liquid, 100mM glycine pH 6.8, 2mg/ml GLP-1, 37°C, total GLP-1 peak by reverse phase HPLC
DPP IV = conditions: read-out: Km of DPP IV for GLP-1; cited from earlier work
Appearance = format: physicochemical; conditions: GLP-1 1mg/ml in neutral solution

Sequence of Porcine kidney DPP IV (P22411 whole entry): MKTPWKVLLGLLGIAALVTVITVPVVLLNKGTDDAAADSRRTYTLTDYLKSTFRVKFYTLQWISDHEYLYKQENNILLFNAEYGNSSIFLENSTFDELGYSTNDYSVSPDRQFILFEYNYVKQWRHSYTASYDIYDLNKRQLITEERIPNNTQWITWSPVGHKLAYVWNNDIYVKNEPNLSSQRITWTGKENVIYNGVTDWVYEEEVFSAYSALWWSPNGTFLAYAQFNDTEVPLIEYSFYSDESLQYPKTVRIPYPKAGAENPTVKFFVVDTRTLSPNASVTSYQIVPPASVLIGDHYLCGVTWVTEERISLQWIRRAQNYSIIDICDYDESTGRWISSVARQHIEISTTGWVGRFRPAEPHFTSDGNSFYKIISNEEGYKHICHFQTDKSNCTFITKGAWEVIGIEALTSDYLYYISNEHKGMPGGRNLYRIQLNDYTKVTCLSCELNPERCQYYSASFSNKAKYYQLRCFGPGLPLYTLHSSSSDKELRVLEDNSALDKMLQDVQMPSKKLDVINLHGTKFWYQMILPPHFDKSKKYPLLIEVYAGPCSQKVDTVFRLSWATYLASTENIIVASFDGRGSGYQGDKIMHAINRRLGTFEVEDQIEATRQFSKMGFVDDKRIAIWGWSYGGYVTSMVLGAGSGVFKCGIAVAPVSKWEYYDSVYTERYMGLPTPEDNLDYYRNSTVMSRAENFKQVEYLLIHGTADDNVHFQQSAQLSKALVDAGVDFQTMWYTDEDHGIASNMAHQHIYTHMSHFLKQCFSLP

Glucagon-like peptide-1 [GLP-1]
GLP-1 degraded by DPP IV in the presence of the carrier PGC-C18 (Porcine kidney DPP IV; 1mg/ml GLP-1 + 10mg/ml PGC-C18 (1:10 w/w), PBS pH 7.4, 1.25mU/mL DPP IV): 26+/−2% | GLP-1 degraded by DPP IV, without any carrier (Porcine kidney DPP IV; 1mg/ml GLP-1, PBS pH 7.4, 1.25mU/mL DPP IV): 58+/−5% | GLP-1 broken down within a month [1]: greater than 10% | Km (DPP IV): 36 µM | appearance of solution when heated to 50°C (Appearance; 50°C): quite clear | appearance of solution as it cools down to room temperature (Appearance; cooled from 50°C to room temperature): turns cloudy and less soluble
